Data published in patent US6284879A, “Transport associated protein splice variants” (The General Hospital Corporation, priority 1998, dated 2001).
Entries after “also recorded” stand apart in the source; their conditions may differ.

Experiments:
[1] = system: TAP1/TAP2iso heterodimer (compared with TAP1/TAP2); experiment: translocation of 125I-labeled peptides into the ER of permeabilized T2 transfectants; format: cell-based, human; conditions: 125I-labeled glycosylated peptide recovered from streptolysin O permeabilized T2 transfectants; comparison in words
Description: 10 mM stock solutions of peptides were prepared in dimethyl sulfoxide. Peptides (25 μg) were directly iodinated at unique tyrosine residues with the use of chloramine T (Sigma, St. Louis, Mo.), and free iodine was removed by gel filtration using Sephadex G 10 (Pharmacia) column chromatography.
(§1) Glycosylated ^125 I Peptide […] (SEQ ID NO: 6), Peptide […] (SEQ ID NO: 7), or Peptide […] (SEQ ID NO: 8) was recovered and measured. The peptide translocation assay was performed essentially as previously described (Neefjes et al., Science, 261:769 (1993); and Momburg et al., J. Exp. Med., 179:1613 (1994)). Briefly, 2.5-5.0×10^6 T2 cell (transfected or untransfected) were washed once with incubation buffer (130 mM KCl, 10 mM NaCl, 1 mM CaC2, 2 mM EDTA, 2 mM MgCl2, 5 mM Hepes, pH 7.3) and permeabilized for 10 minutes at 37° C. with streptolysin O (2 IU/ml) (Wellcome, Beckenham, UK) in 50 μl of incubation buffer. After further addition of 10 μl of 100 mM adenosine triphosphate, 10 μl of ^125 I-labeled peptide (~15 pM), and 30 μl of incubation buffer, cells were incubated for an additional 10 minutes at 37° C. Transport was terminated by the addition of 1 ml of 1% NP-40 detergent, after which nuclei were removed by centrifugation and glycosylated peptides were recovered using concanavalin A-Sepharose (Sigma, St. Louis, Mo.) and quantitated with a gamma counter (LKB-Wallac).

TAP1/TAP2iso heterodimer [2] = molecular target: T1, TAP1/TAP2iso heterodimer (Homo sapiens, UniProt Q03518+Q03519); experiment: competition with transport of 125I-Peptide RRYQNSTEL in TAP1/TAP2iso transfectants; format: cell-based; conditions: unlabeled competitor peptide; comparison in words
T1 construct: expressed in transfected cells
T1 sequence (Q03519 1-653 isoform Q03519-2 L359K/V379I): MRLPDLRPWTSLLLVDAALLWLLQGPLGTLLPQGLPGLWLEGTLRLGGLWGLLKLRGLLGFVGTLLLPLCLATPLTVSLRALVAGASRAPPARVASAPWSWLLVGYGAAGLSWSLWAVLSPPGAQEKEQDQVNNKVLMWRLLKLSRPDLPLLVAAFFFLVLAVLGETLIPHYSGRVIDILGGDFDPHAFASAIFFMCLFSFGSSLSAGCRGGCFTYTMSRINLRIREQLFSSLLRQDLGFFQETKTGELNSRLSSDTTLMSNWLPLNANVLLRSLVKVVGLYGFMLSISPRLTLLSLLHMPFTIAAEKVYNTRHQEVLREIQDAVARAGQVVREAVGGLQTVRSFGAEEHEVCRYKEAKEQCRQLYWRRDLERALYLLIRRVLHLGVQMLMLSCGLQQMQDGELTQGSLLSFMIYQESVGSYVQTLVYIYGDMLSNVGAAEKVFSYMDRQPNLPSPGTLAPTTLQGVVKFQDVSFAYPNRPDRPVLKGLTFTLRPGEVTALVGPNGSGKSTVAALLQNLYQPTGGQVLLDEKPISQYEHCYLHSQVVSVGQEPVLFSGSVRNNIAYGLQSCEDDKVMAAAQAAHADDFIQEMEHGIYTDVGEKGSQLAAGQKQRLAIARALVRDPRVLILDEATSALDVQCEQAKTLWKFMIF
T1 sequence (Q03518 1-748): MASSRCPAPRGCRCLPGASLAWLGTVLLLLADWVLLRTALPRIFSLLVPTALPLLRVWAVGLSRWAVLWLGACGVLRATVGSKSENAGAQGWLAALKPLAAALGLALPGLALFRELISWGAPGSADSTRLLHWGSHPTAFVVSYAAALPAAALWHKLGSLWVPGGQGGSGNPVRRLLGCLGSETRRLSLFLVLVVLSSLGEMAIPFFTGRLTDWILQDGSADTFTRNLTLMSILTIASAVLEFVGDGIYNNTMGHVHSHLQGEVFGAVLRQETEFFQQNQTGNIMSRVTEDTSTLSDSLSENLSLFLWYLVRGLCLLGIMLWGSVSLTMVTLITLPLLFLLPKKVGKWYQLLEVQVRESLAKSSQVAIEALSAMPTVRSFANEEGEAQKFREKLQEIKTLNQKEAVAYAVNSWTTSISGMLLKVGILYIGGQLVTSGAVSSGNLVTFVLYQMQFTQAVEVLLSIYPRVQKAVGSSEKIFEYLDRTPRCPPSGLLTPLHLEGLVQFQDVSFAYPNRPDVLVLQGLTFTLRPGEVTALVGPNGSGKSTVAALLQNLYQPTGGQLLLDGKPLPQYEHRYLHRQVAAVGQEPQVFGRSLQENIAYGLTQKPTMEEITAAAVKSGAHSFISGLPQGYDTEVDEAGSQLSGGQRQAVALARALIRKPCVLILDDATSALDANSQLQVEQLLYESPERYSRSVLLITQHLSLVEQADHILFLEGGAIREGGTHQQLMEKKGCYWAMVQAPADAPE
Description: as §1
Differential peptide selectivity of the TAP1/TAP2 and TAP1/TAP2iso heterodimers was further investigated by competition experiments with ^125 I-labeled Peptide […] (SEQ ID NO: 6) and various unlabeled peptides: Peptide […] (SEQ ID NO: 6); Peptide […] (SEQ ID NO: 7); Peptide […] (SEQ ID NO: 8); Peptide […] (SEQ ID NO: 9), the S1-24 fragment of human adrenocorticotropic hormone); and Peptide […] (SEQ ID NO: 10), residues 22 to 30 (human insulin B chain). The iodinated 9-mer Peptide […] was translocated in the presence of different concentrations of unlabeled competition peptides. The glycosylated peptides were recovered by Con A-Sepharose and quantitated. […] (self); (6B) competition of ^125 I-Peptide […] with Peptide […]; (6C) competition of ^125 I-Peptide […] with Peptide […]; and (6D) competition of ^125 I-Peptide […] with Peptide […]; and (6E) competition of ^125 I-Peptide […] with Peptide […].

[3] = system: T1 cells (naturally co-express both TAP2 and TAP2iso); conditions: in words
TAP1/TAP2 heterodimer = molecular target: T2, TAP1/TAP2 heterodimer (human); experiment: cell-based or functional assay
T2 chain 1: T1 sequence (Q03518 1-748)
T2 chain 2: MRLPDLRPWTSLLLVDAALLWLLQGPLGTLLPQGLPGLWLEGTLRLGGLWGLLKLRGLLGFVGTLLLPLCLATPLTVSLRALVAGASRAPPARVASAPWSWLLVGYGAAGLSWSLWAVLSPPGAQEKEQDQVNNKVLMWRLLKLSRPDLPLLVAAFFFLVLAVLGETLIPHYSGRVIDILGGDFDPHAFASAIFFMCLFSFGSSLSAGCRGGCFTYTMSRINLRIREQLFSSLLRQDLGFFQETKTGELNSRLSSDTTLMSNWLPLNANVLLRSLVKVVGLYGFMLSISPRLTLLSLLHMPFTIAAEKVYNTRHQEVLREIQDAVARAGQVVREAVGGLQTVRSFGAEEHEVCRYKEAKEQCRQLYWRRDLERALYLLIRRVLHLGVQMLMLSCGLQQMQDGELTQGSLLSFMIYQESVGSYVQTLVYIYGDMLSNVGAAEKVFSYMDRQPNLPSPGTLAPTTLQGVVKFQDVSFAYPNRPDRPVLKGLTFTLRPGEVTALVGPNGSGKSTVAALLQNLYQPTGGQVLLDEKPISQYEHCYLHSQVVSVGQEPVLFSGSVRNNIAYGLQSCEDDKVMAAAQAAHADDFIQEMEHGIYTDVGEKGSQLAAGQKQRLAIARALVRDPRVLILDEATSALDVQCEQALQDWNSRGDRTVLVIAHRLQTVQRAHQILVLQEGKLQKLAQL

TAP1/TAP2iso heterodimer [4] = molecular target: T3, TAP1/TAP2iso heterodimer (human); experiment: cell-based or functional assay
T3 chain 1: T1 sequence (Q03518 1-748)
T3 chain 2: T1 sequence (Q03519 1-653 isoform Q03519-2 L359K/V379I)

[5] = system: HLA class I (A2) on T2 cells; experiment: restoration of surface expression of HLA class I (A2) on transfected T2 cells, flow cytometry; format: cell-based, human
Description: Plasmid DNAs were prepared using MAXI-PREP kits (Qiagen). TAP1- and TAP2-deficient T2 cells (donated by P. Cresswell, Howard Hughes Medical Institute, Yale University) (1-2×10^7 cells/ml) were transfected by electroporation with 10 μg of TAP1 and TAP2 or TAP2iso linear plasmid DNA in a 0.4-cm cuvette at 260 V and 960 μF. Subcloning and selection of transfectants were performed by culturing in the presence of hygromycin (250 μg/ml) or histidinol ([…]) for the PREP 4 and PREP8 vectors, respectively.
Immune complexes were detected with fluorescein isothiocyanate-conjugated goat anti-mouse IgG antibodies (Coulter, Hialeah, Fla.) and an Epics Elite flow cytometer (Coulter).
T2 cells were transfected with TAP1 cDNA in combination with TAP2 or TAPiso cDNAs as described above.

TVDNKTRYE [Peptide TVDNKTRYE] was tested, and the “amount of translocated peptide, TAP1/TAP2iso compared with TAP1/TAP2” value [1] was “transported to a greater extent by TAP1/TAP2; also recorded: transported more efficiently in the TAP1/TAP2 transfectant”, the “inhibition of transport of 125I-Peptide RRYQNSTEL, TAP1/TAP2iso compared with TAP1/TAP2 transfectants” value (TAP1/TAP2iso heterodimer [2]) was “markedly greater extent in TAP1/TAP2 transfectants” and the “transportation of test peptides (relative IC50)” value [3] was “equal efficiency”.

For “RGFFYTPKA [Peptide RGFFYTPKA, residues 22 to 30 (human insulin B chain)]”, the “inhibition of transport of 125I-Peptide RRYQNSTEL, TAP1/TAP2iso compared with TAP1/TAP2 transfectants” value (TAP1/TAP2iso heterodimer [2]) was “in TAP1/TAP2iso to a greater extent”.

IYLGPFSPNVTL [Peptide IYLGPFSPNVTL] was tested, and the “amount of translocated peptide, TAP1/TAP2iso compared with TAP1/TAP2” value [1] was “transported to a greater extent by TAP/TAP2iso; also recorded: four times more efficiently by the TAP1/TAP2iso heterodimer”, the “inhibition of transport of 125I-Peptide RRYQNSTEL, TAP1/TAP2iso compared with TAP1/TAP2 transfectants” value (TAP1/TAP2iso heterodimer [2]) was “markedly greater extent in TAP1/TAP2iso transfectants” and the “transportation of test peptides (relative IC50)” value [3] was “equal efficiency”.

For RGFFYTPKA [Peptide RGFFYTPKA], the “IC50 of inhibition of transport of 125I-labeled Peptide …” value (TAP1/TAP2 heterodimer) was 300 nM and the “IC50 of inhibition of transport of 125I-labeled Peptide …” value (TAP1/TAP2iso heterodimer [4]) was 110 nM.

B1: TAP1/TAP2iso: novel TAP heterodimer of TAP1 and splice variant TAP2iso, expressed from transfected cDNAs (protein)
chain 1: T1 sequence (Q03518 1-748)
chain 2: T1 sequence (Q03519 1-653 isoform Q03519-2 L359K/V379I)
For B1, the “Mean fluorescence of HLA class 1 (A2) Mean ± SD” value ([5]; T2 cells transfected with the named cDNAs, four separate experiments, at least three stable clones) was 11.16 ± .50, the “surface expression of HLA/MHC class I” value ([5]; T2 cells transfected with the named cDNAs, in words) was “restored surface expression” and the “surface MHC class I expression, greater than in cells transfected with TAP1-TAP2 cDNAs” value ([5]; transfected T2 cells) was 30%.

For RRYQNSTEL [unlabeled Peptide RRYQNSTEL], the “IC50 of inhibition of transport of 125I-labeled Peptide …” value (TAP1/TAP2 heterodimer) was ~150 nM and the “IC50 of inhibition of transport of 125I-labeled Peptide …” value (TAP1/TAP2iso heterodimer [4]) was ~150 nM.
